Measured values as given in patent US20050059132A1.
Each block holds one molecule with its values, some of them ahead of it.

What was measured:
[1] = target: APC mutant QGNSEDY (ALL) (human) (UniProt P04070); assay: cell-based or functional assay
[2] = target: human wild-type activated protein C (human) (UniProt P04070); assay: cell-based or functional assay
[3] = target: R506Q FVa (FVa Leiden, activated FV:Q506), P12259
[4] = target: human plasma factor Va (normal, wild-type), P12259
Sequence of human plasma factor Va (normal, wild-type), P12259 (P12259 29-2224): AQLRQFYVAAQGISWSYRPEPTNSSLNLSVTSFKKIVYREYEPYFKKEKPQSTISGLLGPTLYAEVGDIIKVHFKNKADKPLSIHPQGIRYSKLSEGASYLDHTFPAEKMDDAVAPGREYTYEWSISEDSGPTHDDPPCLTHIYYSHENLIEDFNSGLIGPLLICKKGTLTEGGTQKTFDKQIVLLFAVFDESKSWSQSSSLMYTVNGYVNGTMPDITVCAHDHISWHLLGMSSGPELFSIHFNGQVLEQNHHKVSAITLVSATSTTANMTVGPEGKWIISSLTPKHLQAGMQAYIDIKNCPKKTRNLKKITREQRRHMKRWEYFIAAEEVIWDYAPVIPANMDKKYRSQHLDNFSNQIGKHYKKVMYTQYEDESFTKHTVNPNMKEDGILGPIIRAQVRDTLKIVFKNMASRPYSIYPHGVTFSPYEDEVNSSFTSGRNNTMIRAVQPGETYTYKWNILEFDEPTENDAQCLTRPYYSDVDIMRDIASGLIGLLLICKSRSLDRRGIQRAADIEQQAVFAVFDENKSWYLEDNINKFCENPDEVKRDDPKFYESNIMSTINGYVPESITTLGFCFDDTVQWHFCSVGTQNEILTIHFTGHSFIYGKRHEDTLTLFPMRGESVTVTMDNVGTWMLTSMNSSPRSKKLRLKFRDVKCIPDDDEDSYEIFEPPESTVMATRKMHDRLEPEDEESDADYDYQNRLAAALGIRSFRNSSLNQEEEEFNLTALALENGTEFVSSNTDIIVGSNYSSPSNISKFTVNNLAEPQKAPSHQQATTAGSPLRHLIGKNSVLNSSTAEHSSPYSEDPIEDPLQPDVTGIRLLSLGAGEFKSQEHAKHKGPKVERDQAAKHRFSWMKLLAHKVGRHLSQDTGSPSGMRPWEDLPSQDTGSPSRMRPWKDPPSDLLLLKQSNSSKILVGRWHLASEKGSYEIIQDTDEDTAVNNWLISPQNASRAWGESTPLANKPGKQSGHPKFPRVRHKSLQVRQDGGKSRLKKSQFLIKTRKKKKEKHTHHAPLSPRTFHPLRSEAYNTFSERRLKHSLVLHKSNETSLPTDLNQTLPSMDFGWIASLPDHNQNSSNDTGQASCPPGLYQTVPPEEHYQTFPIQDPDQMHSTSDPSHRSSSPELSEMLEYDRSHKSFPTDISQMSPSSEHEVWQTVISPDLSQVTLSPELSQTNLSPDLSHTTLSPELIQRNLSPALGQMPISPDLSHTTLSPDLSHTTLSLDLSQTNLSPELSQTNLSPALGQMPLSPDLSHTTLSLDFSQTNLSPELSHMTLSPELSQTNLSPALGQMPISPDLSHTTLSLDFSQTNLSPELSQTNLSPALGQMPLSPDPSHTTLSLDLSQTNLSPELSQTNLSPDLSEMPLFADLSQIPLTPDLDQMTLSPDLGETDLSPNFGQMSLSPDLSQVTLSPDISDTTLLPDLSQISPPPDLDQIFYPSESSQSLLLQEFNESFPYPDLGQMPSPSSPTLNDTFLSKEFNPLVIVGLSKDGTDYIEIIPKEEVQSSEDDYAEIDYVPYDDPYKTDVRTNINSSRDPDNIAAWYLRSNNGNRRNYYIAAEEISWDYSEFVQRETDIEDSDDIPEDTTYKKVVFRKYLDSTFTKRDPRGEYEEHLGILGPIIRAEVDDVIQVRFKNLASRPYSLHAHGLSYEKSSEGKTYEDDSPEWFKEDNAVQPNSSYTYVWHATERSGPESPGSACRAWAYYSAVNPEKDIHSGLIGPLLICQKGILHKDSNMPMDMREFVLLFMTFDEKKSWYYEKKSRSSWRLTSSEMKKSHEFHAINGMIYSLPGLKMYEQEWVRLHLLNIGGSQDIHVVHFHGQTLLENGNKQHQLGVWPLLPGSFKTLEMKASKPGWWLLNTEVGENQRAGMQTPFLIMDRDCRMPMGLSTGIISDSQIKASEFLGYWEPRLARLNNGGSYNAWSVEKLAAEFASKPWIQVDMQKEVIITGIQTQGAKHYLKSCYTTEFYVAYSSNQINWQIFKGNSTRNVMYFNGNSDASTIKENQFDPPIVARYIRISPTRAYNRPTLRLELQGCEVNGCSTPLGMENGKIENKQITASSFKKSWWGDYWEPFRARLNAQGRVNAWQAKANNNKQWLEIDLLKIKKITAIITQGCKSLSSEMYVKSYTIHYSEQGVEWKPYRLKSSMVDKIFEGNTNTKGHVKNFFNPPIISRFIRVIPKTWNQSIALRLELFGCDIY

Sequence of R506Q FVa (FVa Leiden, activated FV:Q506), P12259 (P12259 29-2224 R534Q): as the sequence (P12259 29-2224) above, with R506Q counted along it

APTT clotting time in protein S deficient plasma with 20 nM APC, in absence of protein S [1]: 160 s
APTT clotting time in protein S deficient plasma with 20 nM APC, with protein S added [1]: 350 s
APTT clotting time in protein S deficient plasma with 20 nM APC, at the highest protein S concentration [2]: 150 s
APTT clotting time in protein S deficient plasma with 20 nM APC, in absence of protein S [2]: 100 s
Molecule: human protein S (from UniProt P07225 42-676)

B1: human wild-type activated protein C (protein)
chain 1: ANSFLEELRHSSLERECIEEICDFEEAKEIFQNVDDTLAFWSKHVDGDQCLVLPLEHPCASLCCGHGTCIDGIGSFSCDCRSGWEGRFCQREVSFLNCSLDNGGCTHYCLEEVGWRRCSCAPGYKLGDDLLQCHPAVKFPCGRPWKRMEKKRSHL
chain 2: LIDGKMTRRGDSPWQVVLLDSKKKLACGAVLIHPSWVLTAAHCMDESKKLLVRLGEYDLRRWEKWELDLDIKEVFVHPNYSKSTTDNDIALLHLAQPATLSQTIVPICLPDSGLAERELNQAGQETLVTGWGYHSSREKEAKRNRTFVLNFIKIPVVPHNECSEVMSNMVSENMLCAGILGDRQDACEGDSGGPMVASFHGTWFLVGLVSWGEGCGLLHNYGVYTKVSRYLDWIHGHIRDKEAPQKSWAP
remaining FVa activity over time on incubation with 0.4 nM APC [3]: a slow decrease in FVa activity
loss of FVa activity over time (FXa-mediated prothrombin activation assay) on incubation of 0.76 nM FVa with 0.39 nM APC [4]: the initial rapid loss of FVa activity that is observed during the first 5 minutes of incubation
